# Data published in PMC9332313, “Folding and Binding Mechanisms of the SH2 Domain from Crkl” (Biomolecules, 2022).
# Square brackets hold non-standard residues; d marks the D form. Ends that are not written are not given here. * marks the point of attachment. pY = N[C@@H](Cc1ccc(OP(=O)(O)O)cc1)C(=O)O; Dansyl = CN(C)c1cccc2c(S(=O)(=O)*)cccc12
# Legend:
# Conditions in all cases: both partners purified
# [1] = molecular target: T1, SH2 domain of Crkl protein (residues 1-111), wild type (UniProt P46109 1-111); assay: stopped-flow fluorescence kinetics (FRET); dansyl-Pax112-123 constant at 2 μM mixed with Crkl-SH2 2 to 10 μM (pseudo-first-order, kon); koff by displacement of the preincubated 2 µM complex with excess non-dansylated Pax112-123 (30 μM); 283 K; 50 mM TrisHCl pH 8.5, 0.5 M NaCl
# T1 construct: Crkl adaptor protein, SH2 domain, residues 1-111; Subcloned in pET28b+; all experiments were done on the N-terminally His-tagged protein; also called Crkl-SH2; Crkl SH2 domain; source: E. coli BL21 (DE3), purified (HisTrap nickel column, desalting); not shown: His tag, N-terminal, kept
# [2] = molecular target: T2, SH2 domain of Crkl protein (residues 1-111), H33A variant (UniProt P46109 1-111, H33A); assay: as above
# T2 construct: Crkl adaptor protein, SH2 domain, residues 1-111, His33 replaced by alanine; Site-directed mutant of m1 (QuikChange); source: E. coli BL21 (DE3), purified (HisTrap nickel column, desalting); not shown: His tag, N-terminal, kept
# [3] = molecular target: T3, SH2 domain of Crkl protein (residues 1-111), H80A variant (UniProt P46109 1-111, H80A); assay: as above
# T3 construct: Crkl adaptor protein, SH2 domain, residues 1-111, His80 replaced by alanine; Site-directed mutant of m1 (QuikChange); source: E. coli BL21 (DE3), purified (HisTrap nickel column, desalting); not shown: His tag, N-terminal, kept
# [4] = molecular target: T1, SH2 domain of Crkl protein (residues …); assay: stopped-flow fluorescence kinetics (FRET); dansyl-Pax112-123 constant at 2 μM mixed with Crkl-SH2 2 to 10 μM (pseudo-first-order, kon); koff by displacement of the preincubated 2 µM complex with excess non-dansylated Pax112-123 (30 μM); 283 K; 50 mM sodium-acetate pH 5.0, 0.5 M NaCl
# [5] = molecular target: T2, SH2 domain of Crkl protein (residues …); assay: as above
# [6] = molecular target: T3, SH2 domain of Crkl protein (residues …); assay: as above
# [7] = molecular target: T4, SH2 domain of Crkl protein (residues 1-111), H91A variant (UniProt P46109 1-111, H91A); assay: stopped-flow fluorescence kinetics (FRET); dansyl-Pax112-123 constant at 2 μM mixed with Crkl-SH2 2 to 10 μM (pseudo-first-order, kon); koff by displacement of the preincubated 2 µM complex with excess non-dansylated Pax112-123 (30 μM); 283 K; 50 mM BisTRIS pH 6.0, 0.5 M NaCl
# T4 construct: Crkl adaptor protein, SH2 domain, residues 1-111, His91 replaced by alanine; Site-directed mutant of m1 (QuikChange); source: E. coli BL21 (DE3), purified (HisTrap nickel column, desalting); not shown: His tag, N-terminal, kept
# [8] = molecular target: T1, SH2 domain of Crkl protein (residues …); assay: as above
# [9] = molecular target: T2, SH2 domain of Crkl protein (residues …); assay: as above
# [10] = molecular target: T3, SH2 domain of Crkl protein (residues …); assay: as above
# T4 sequence (P46109 1-111 H91A): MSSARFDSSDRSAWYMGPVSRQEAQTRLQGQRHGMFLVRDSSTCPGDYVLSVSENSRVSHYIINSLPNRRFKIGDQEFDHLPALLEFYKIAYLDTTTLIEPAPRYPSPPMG
# T2 sequence (P46109 1-111 H33A): as the sequence (P46109 1-111 H91A) above, with H33A, A91H counted along it
# T1 sequence (P46109 1-111): as the sequence (P46109 1-111 H91A) above, with A91H counted along it
# T3 sequence (P46109 1-111 H80A): as the sequence (P46109 1-111 H91A) above, with H80A, A91H counted along it
binder,measurement,setting,value
"Dansyl-GEEEHV[pY]SFPNK (The dansyl group is the FRET acceptor of Trp14 of the SH2 domain; source: synthetic peptide, bought: GenScript) [dansylated Pax_(112–123) peptide (Dans-GEEEHV-pY-SFPNK)]",Kd,[1],3.5 ± 0.3 µM
same,koff,[1],41.6 ± 0.9 s⁻¹
same,kon,[1],1.2e+07 ± 1.1e+06 M⁻¹ s⁻¹
same,Kd,[2],2.1 ± 0.3 µM
same,koff,[2],26.9 ± 2.8 s⁻¹
same,kon,[2],1.26e+07 ± 1.4e+06 M⁻¹ s⁻¹
same,Kd,[3],3.2 ± 0.5 µM
same,koff,[3],32.5 ± 2.7 s⁻¹
same,kon,[3],1.02e+07 ± 1.2e+06 M⁻¹ s⁻¹
same,Kd,[4],9.5 ± 1.7 µM
same,koff,[4],49.1 ± 1.7 s⁻¹
same,kon,[4],5.2e+06 ± 900000 M⁻¹ s⁻¹
same,Kd,[5],7.6 ± 0.7 µM
same,koff,[5],33.2 ± 1.4 s⁻¹
same,kon,[5],4.4e+06 ± 300000 M⁻¹ s⁻¹
same,Kd,[6],11.5 ± 1.2 µM
same,koff,[6],52.7 ± 3.2 s⁻¹
same,kon,[6],4.6e+06 ± 400000 M⁻¹ s⁻¹
same,Kd,[7],3 ± 0.1 µM
same,koff,[7],20 ± 0.3 s⁻¹
same,kon,[7],6.6e+06 ± 200000 M⁻¹ s⁻¹
same,Kd,[8],2.6 ± 0.2 µM
same,koff,[8],20.8 ± 0.3 s⁻¹
same,kon,[8],7.9e+06 ± 600000 M⁻¹ s⁻¹
same,Kd,[9],3.3 ± 0.2 µM
same,koff,[9],19.5 ± 0.4 s⁻¹
same,kon,[9],5.9e+06 ± 300000 M⁻¹ s⁻¹
same,Kd,[10],3.2 ± 0.1 µM
same,koff,[10],19.6 ± 0.3 s⁻¹
same,kon,[10],6.1e+06 ± 300000 M⁻¹ s⁻¹
